According to doi:10.1101/2024.04.02.587325, “Structural characterization of the Pseudomonas Aeruginosa MexR–mexR repressor-operator complex: a small-angle X-ray and neutron scattering perspective”:

Target: MexR (Pseudomonas aeruginosa, UniProt P52003)
Test: ITC; one set of sites; N = 4.0 ± 0.1; dH 122.3 ± 5.2 kJ/mol; ITC: 20 mM NaPO4 pH 7.0, 150 mM NaCl, 5 mM beta-mercaptoethanol, 20 C; SEC of the complex: 20 mM HEPES, 150 mM NaCl, 2 mM TCEP
Conditions: protein: recombinant; tags: N-terminal His6-Trx removed by TEV; residual SM; chain copies: 4; blunt

Chain of MexR (P52003 5-139, tags or fused parts left off): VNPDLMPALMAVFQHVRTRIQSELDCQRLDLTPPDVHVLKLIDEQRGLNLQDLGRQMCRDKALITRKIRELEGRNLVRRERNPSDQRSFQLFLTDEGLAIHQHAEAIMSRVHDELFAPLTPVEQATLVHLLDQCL

B1: 60 bp mexR-mexA operator DNA (PI+PII) (dsDNA)
DNA 1: AAATGTGGTTGATCCAGTCAACTATTTTGCTTATTTTAGTTGACCTTATCAACCTTGTTT
DNA 2: AAACAAGGTTGATAAGGTCAACTAAAATAAGCAAAATAGTTGACTGGATCAACCACATTT
Kd: 206 ± 52 nM
